Assay results: paper PMC6885686, “RRM adjacent TARDBP mutations disrupt RNA binding and enhance TDP-43 proteinopathy”

Biological target: TDP-43 RRM1-2 WT (UniProt Q13148 102-269)
Assay: BLI; EMSA: 5 ug total lysate in RIPA with RNase inhibitor, 2 ug tRNA, 1 uM unlabelled (GU)x6 and 2.5 nM biotin-(GU)x6, 30 min room temperature, 6% native PAGE; BLI buffer not given in the material (protein purified in phosphate buffer pH 7.2)
Details: protein: recombinant; tags: 6xHis-SUMO removed by TEV

Chain of TDP-43 RRM1-2 WT (Q13148 102-269): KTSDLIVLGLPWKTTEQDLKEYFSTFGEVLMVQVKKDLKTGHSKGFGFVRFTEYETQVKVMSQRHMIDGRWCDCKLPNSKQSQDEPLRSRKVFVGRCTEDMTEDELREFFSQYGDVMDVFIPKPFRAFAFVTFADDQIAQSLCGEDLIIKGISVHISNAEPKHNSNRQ

Binder: GUGUGAAUGAAU (ssRNA) [AUG-RNA]
- Kd: 3.2 ± 0.9 nM
